Reference: publication PMC11698656
Blank lines part the entries; values can stand above or below the substance they belong to.

What was measured:
[1] = target: ancestral human TRPV6 (R157, V378, T681) (human); assay: cryo-EM structure
[2] = target: derived human TRPV6 (C157, M378, M681) (human); assay: cryo-EM structure

stoichiometry N [1]: 4 subunits
Substance: ancestral human TRPV6 (R157, V378, T681) (natural protein)

stoichiometry N [2]: 4
Substance: derived human TRPV6 (C157, M378, M681) (natural protein)

stoichiometry N (CaM per TRPV6 tetramer) [1]: 1
Substance: endogenous calmodulin (CaM) (from UniProt P0DP23 1-149) (natural protein)
